Measured values taken from patent US20090082268A1 (GEYMONAT S P A, published 2009).

Target: T1, human VEGFR-1/Fc (R&D Systems) (human, UniProt P17948 27-756, limits assumed)
T1 construct: Bought reagent, coated on the ELISA plate; also called receptor Flt-1; not shown: Fc part of the bought fusion
Assay: ELISA: VEGFR-1/Fc coated, PlGF-1 diluted two-fold from 20 ng/ml, detected with biotinylated anti-human PlGF antibodies
Method: To test receptor binding, an ELISA assay was performed according to the following protocol: [0141] 1. Well of 96-well microtiter plate were coated with 200 μl of 1 μg/ml human VEGFR-1/Fc (R&D Systems) and incubated overnight at 4° C. [0142] 2. Two-fold dilution series starting at 20 ng/ml of various preparations of recombinant human PlGF-1 were prepared and added in a volume of 100 μl per well. The plate was incubated for 2 hours at room temperature. [0143] 3. Bound PlGF-1 was captured with biotinylated anti-human PlGF antibodies (R&D Systems) added in a volume of 100 μl per well for 1 hour at room temperature. [0144] 4. A 1:200 dilution of horseradish peroxidase-conjugated streptavidin (R&D Systems) was added and incubated for 20 min. at room temperature. [0145] 5. Substrate solution (TMB from Pierce) was added and after 15 min. the reaction was quenched with 2 M sulfuric acid. [0146] 6. The absorbance was measured at 450 nm.

T1 sequence (P17948 27-756 limits assumed): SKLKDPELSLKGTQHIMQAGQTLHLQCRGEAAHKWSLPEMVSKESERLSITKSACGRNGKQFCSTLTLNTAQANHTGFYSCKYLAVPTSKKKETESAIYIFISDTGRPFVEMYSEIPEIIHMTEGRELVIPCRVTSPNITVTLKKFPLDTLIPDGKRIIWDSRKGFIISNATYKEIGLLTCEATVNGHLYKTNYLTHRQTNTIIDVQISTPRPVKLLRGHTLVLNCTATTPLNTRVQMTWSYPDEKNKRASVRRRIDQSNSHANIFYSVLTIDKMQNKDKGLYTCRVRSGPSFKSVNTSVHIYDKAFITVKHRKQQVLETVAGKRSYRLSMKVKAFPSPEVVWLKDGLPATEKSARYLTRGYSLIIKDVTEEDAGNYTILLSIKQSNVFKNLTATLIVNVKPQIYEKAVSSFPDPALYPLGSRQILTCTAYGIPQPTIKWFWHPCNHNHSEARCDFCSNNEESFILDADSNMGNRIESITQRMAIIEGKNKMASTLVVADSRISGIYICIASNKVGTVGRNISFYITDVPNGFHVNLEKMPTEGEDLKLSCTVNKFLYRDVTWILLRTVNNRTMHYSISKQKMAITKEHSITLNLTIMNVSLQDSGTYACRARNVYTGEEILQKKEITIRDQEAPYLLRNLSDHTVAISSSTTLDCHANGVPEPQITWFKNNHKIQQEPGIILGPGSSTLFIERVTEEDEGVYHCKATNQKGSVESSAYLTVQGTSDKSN

B1: PlGF-1 mutein from Geymonat (recombinant human PLGF-1CG) (ligand)
chain: MLPAVPPQQWALSAGNGSSEVEVVPFQEVWGRSYCRALERLVDVVSEYPSEVEHMFSPSCVSLLRCTGCCGDENLHCVPVETANVTMQLLKIRSGDRPSYVELTFSQHVRCECRPLREKMKPERGGDAVPRR
notes: Described as 'a PlGF-1 mutein embodiment of the present invention'; also called Geymonat Mutein; Mutein Geymonat
B1: binds.
